B1: Calypso^43–404 (wild type), as in the Calypso^43–404–ASX^207–340 complex [Drosophila melanogaster] / itself (parent)
chain: ADGWLELESDPGLFTLLLKDFGCHDVQVEEVYDLQKPIESPYGFIFLFRWIEERRARRKIVETTAEIFVKDEEAISSIFFAQQVVPNSCATHALLSVLLNCNENNLQLGDTLSRLKTHTKGMSPENKGLAIGNTPELACAHNSHAMPQARRRLERTGAGVSSCRFTGEAFHFVSFVPINGQLFELDGLKPYPMNHGGWEDSEDWTDKFRRVMAERLGIATGEQDIRFNLMAVVPDRRIAITHKLKMLRTNQAIVSGTLQKLLKADEQGESGNGDSQRPDTPTTLLEPSAFTARDLQSLLKNLDTEIAINEQHLADENDRRHMFKVDASRRTHNYDKFICTFLSMLAHQGVLGELVSQHLLPS

Variants of: B1
Assay: SEC-MALLS (Calypso–Calypso dimerisation within the Calypso–ASX complex)
Details: with itself; 50 μM; 20 mM HEPES pH 7.5 and 100 mM NaCl; read off a plot

Row | Variant | screen value [kDa]
1 | chain 1 M246R | 77

— paper PMC6158172, “A bidentate Polycomb Repressive-Deubiquitinase complex is required for efficient activity on nucleosomes” (Nature Communications, 2018)
